The values below come from PMC2978343.

Assay [1] has as its target Ecl18kI restriction endonuclease, wild type (UniProt O87963). The experiment in a line: tethered particle motion.
Assay [2] deals with Ecl18kI R174A mutant (UniProt O87963).
Assay [3] shares this target. The assay is described as follows: atomic force microscopy.

For “Ecl18kI restriction endonuclease, wild type (from UniProt O87963 1-305) (enzyme)”, the k unloop (loop breakage rate constant, tetramer to two DNA-bound dimers) in assay [1] came to 0.86 s⁻¹. Broadly, the stoichiometry N is a count of units in the complex or per binding partner. In assay [2], “Ecl18kI R174A mutant (from UniProt O87963 1-305) (enzyme)” yielded a phage lambda DNA cleavage activity, % of wt of 0.2%. Also, the stoichiometry N in assay [3] turned out to be 2.
